Our source for the fold rise of Kd on removing the CTD of α-syn and Kd values is doi:10.1101/2025.07.10.664163.

Assay [1] concerns the target Alexa-488 maleimide-labeled α-syn^ΔCTD (Δ104-140, A18C) (human) (UniProt P37840). The assay can be described thus: fluorescence polarisation.
Assay [2] concerns the target Alexa-488 maleimide-labeled α-synuclein (G132C) (human) (UniProt P37840). Put plainly: fluorescence polarisation. A general note: In fluorescence polarisation assays a small probe gives low polarisation when free and higher when bound to something large.

In general, Kd refers to the concentration at which binding is half-saturated. In assay [1], “SARS-CoV-2 nucleocapsid protein with the CTD deleted (NP^ΔCTD) (domain or fragment)” came in with a fold rise of Kd on removing the CTD of α-syn of 3.5 fold. The Kd in assay [2] was 1850 nM.
As for “SARS-CoV-2 nucleocapsid protein with the NTD deleted (NP^ΔNTD) (domain or fragment)”, the fold rise of Kd on removing the CTD of α-syn in assay [1] stood at 4 fold. The Kd in assay [2] was determined as 3670 nM.
